The record followed here is patent publication US20170115291A1, “Activating JAK Kinase Biomarkers Predictive of Anti-Immune Checkpoint Inhibitor Response” (Dana-Farber Cancer Institute, Inc., priority 2014, published 2017).

For one data set, the target named is T1, PD-L1 (Homo sapiens, UniProt Q9NZQ7).
T1 construct: their tumor was also tested for PD-L1 expression and found to be positive; endogenous in cells; host or cells: tumour cells and immune cells (macrophages/monocytes) of a patient with metastatic lung adenocarcinoma
T1 sequence (Q9NZQ7 19-290): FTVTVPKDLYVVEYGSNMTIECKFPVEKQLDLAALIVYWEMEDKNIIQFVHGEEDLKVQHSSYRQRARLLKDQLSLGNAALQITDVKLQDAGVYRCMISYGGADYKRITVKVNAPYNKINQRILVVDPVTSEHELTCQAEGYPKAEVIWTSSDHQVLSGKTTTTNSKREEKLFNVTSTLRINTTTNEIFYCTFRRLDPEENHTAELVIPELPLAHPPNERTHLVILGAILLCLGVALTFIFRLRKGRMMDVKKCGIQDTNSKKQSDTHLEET
Description: Phase 1 study of MPDL3280A in a patient with metastatic lung adenocarcinoma. In kind it is in vivo. The method, then: The patient also consented to enroll on a phase 1 multicenter open-label dose-escalation study to evaluate the safety, tolerability, and pharmacokinetics of MPDL3280A (DF/HCC Protocol 11-314; NCT#01375842). […] As part of the inclusion criteria, their tumor was also tested for PD-L1 expression and found to be positive. The drug was administered as a single agent at a dose of 20 mg/kg every 3 weeks. […] Tumor response and evaluation was performed by physical examination and serial chest/abdomenipelvic CT scans, and target lesions were evaluated using RECIST criteria. Following treatment discontinuation at 1 year, the patient has continued to be monitored every 3 months by examination and CT scans.
Thus, after a temporary decline, the patient subsequently received sixteen cycles of MPDL3280A over a one-year period. […] They completed one year of therapy per protocol and remained without evidence of disease progression for an additional 12 months. At this point, they began to lose weight again and developed regrowth of the right adrenal mass (FIG. 1D), leading to re-initiation of MPDL3280A therapy.

Data set [1] has as its system CD4+ T cells and CD8+ T cells. Description: T cell proliferation assay, monocytes from blood pre- and 1 h post-MPDL3280A infusion. In kind it is cell-based, human. As to conditions: in the presence of circulating MPDL3280A (1 h post- vs pre-infusion), especially with monocytes primed with IFNγ. As to the method:
PBMCs were isolated from patient blood samples immediately pre- and 1 h post-treatment with MPDL3280A, as well as from a normal donor by Ficoll and plated in a density of 4×10^6 cells/ml to a 96-well plate. After 2 h at 37° C. non-adherent cells (lymphocyte portion) were removed by pipetting and remaining adherent cells (monocyte portion) were cultured with or without 250 ng/ml IFNγ. At 24 h, non-adherent lymphocytes were labeled with CFSE. Monocytes (IFNγ treated or untreated) were harvested by 5 mM EDTA treatment and resuspended in fresh medium. Both lymphocytes and monocytes were then plated to a 96-well plate pre-coated with 10 μg/ml OKT3 antibody. Proliferation of CD4+ T cells and CD8+ T cells were monitored at 72 h post-stimulation by CSFE dilution.

The nature of data set [2]: Chemotherapy of the patient before MPDL3280A. The data set is classed as in vivo, human. The conditions noted are these: one patient, single cycle. The text has this: He then developed a perirectal abscess and was switched to dose-reduced carboplatin and pemetrexed, together with bevacizumab for three additional cycles and was transitioned to maintenance pemetrexed and bevacizumab.

Where [3] appears, read: one patient, sixteen cycles over one year.

“MPDL3280A: an engineered anti-PDL1 antibody (Genentech)”: the “Time without evidence of disease progression after completing one year of therapy” value with PD-L1 (off therapy) is given as 12 months. Besides, the Tolerability result with PD-L1 (one patient, 20 mg/kg every 3 weeks, 16 cycles) is given as “tolerated well other than a mild flare of their underlying chronic obstructive pulmonary disease”. Also, the “Tumor response by RECIST criteria” value in the data set with PD-L1 (one patient, 20 mg/kg every 3 weeks, sixteen cycles over a one-year period) was “partial response”. For the same substance, the “Size of the paratracheal mass on serial chest CT scans” value with PD-L1 (one patient, FIG. 1 panel C) was “reduction in size”. Further, in the data set with PD-L1 (one patient, after another 3 months of MPDL3280A), the “Right adrenal lesion on restaging scans after re-initiation of therapy” value is “rapid improvement”. In the data set with PD-L1 (setting [3]), the Body weight result is recorded as “return to pre-diagnosis body weight”, the Narcotic pain medication result is listed as “discontinuation of all narcotic pain medication” and the Symptoms result is recorded as “complete resolutions of their symptoms”. Also, the “T cell activation (proliferation of autologous or allogeneic CD4+/CD8+ T cells)” value in data set [1] was “significantly greater”.

Regarding carboplatin and paclitaxel, the Tolerability result in data set [2] is listed as “tolerated poorly”.
